This test addresses quenched fluorescein gelatin substrate (DQ gelatin, Invitrogen D12054).

Sequence of catalytic rat MMP9 (80 kD active MMP9) (enzyme) (P50282 108-708 limits assumed): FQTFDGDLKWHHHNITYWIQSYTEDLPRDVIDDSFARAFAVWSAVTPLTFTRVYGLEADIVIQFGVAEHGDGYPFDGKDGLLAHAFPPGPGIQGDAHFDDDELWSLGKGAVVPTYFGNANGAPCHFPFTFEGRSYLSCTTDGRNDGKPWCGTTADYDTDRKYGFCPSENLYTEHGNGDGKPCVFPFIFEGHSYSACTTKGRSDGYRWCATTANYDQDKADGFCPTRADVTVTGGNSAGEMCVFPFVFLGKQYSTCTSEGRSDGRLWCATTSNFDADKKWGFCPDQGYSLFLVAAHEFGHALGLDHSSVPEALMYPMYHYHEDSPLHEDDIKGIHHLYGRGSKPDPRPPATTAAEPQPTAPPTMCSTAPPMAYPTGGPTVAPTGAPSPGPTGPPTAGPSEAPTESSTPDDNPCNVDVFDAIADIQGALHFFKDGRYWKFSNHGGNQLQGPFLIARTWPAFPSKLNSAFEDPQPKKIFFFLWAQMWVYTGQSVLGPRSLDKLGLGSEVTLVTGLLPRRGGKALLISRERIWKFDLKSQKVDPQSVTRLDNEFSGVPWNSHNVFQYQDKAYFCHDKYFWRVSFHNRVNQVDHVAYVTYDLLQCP

On to “catalytic rat MMP9 (80 kD active MMP9) (enzyme)”, for which the gelatinase activity by in situ zymography, Intensity (RLU × 10^6), Mean came to 1.09e+08 RLU.

The values above are taken from US20130040994A1.
